# Patent US20140087995A1 (published 2014)
# Numbered stars: 1 amine (or outer) side, 2 acyl side, 3 side chain; on linkers, the order of the positions; unused ones are H or OH. Bridge positions count the residues as written; N and C are the ends. Side chains are listed from the residue outwards. Ends that are not written are not given here. * marks the point of attachment. C20 diacid = O=C(O)CCCCCCCCCCCCCCCCCCC(=O)*; γGlu = O=C(O)[C@H](CCC(=O)[*:2])N[*:1]; AEEA = NCCOCCOCC(=O)O
# T1: rat calcitonin receptor (rat, UniProt P32214 25-516)
# T1 construct: whole, on cells; Cell membranes of transiently transfected BHK tk'ts 13 cells (Assay VIII); also called rCTR; rCT
# T1 sequence (looked up): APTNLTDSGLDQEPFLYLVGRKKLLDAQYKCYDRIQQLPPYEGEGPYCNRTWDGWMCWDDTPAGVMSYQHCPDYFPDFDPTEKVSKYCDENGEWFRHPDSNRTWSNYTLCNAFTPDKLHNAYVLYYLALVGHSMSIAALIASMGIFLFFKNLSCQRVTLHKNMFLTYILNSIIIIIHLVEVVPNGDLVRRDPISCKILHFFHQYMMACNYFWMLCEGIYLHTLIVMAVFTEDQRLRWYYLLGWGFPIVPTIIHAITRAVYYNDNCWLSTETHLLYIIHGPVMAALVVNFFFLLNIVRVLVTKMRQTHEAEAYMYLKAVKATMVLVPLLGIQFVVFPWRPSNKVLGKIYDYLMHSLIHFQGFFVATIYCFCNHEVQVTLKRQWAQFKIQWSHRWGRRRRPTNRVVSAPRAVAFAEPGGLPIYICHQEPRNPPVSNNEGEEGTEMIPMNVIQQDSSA
# T2: human calcitonin receptor (human, UniProt P30988 25-474)
# T2 construct: whole, on cells; Cell membranes of a stably transfected BHK cell line (Assay VII); also called hCTR; hCT
# T2 sequence (looked up): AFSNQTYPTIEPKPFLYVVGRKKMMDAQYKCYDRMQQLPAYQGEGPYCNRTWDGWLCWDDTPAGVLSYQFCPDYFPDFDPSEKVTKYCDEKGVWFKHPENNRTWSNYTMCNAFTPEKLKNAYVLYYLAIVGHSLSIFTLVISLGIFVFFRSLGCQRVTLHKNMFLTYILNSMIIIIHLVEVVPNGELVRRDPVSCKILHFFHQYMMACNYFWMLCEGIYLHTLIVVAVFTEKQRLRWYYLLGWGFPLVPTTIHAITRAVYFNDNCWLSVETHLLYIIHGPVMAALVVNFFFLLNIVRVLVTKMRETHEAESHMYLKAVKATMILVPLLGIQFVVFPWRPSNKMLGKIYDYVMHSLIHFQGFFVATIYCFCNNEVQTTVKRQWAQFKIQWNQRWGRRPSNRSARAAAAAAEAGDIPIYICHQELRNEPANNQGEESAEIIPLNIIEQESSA
# T3: rat amylin receptor (rat calcitonin receptor + rat RAMP 3) (rat, UniProt P32214 25-516; Q9JJ73 23-147)
# T3 construct: whole, on cells; Cell membranes of transiently transfected BHK tk'ts 13 cells (Assay VI); also called rAmylin-R; rat amylin 3(a) receptor
# T3 sequence (looked up) 1: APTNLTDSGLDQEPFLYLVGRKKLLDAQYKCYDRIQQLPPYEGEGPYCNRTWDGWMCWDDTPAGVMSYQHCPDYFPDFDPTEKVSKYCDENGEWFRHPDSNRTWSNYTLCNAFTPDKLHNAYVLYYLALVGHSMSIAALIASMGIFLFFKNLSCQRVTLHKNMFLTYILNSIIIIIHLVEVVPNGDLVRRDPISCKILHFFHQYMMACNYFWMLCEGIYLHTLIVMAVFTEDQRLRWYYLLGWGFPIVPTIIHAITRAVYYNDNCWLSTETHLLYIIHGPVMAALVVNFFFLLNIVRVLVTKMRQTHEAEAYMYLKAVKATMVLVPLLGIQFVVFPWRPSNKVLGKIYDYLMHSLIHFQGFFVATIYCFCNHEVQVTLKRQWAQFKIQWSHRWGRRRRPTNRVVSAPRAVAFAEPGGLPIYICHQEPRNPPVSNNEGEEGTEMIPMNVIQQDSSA
# T3 sequence (looked up) 2: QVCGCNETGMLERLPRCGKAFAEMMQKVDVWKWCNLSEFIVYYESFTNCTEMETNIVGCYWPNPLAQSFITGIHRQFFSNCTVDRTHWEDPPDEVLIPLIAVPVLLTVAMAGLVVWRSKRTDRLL
# Legend:
# rat calcitonin receptor [1] = target: T1, rat calcitonin receptor; assay: ratio IC50 rat calcitonin receptor / IC50 rat amylin receptor
# [2] = target: T2, human calcitonin receptor; assay: ratio IC50 human calcitonin receptor / IC50 human amylin receptor
# Summary of the method: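 Scintillation proximity competition binding on cell membranes at 35 ng/μL with SPA beads, in 50 mM Hepes pH 7.4, 1 mM CaCl2, 5 mM MgCl₂, 0.1% OA, 0.02% Tween20. Incubated 120 min at 25° C with shaking. IC₅₀ from one-site competition fit.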
# rat calcitonin receptor [3] = target: T1, rat calcitonin receptor; assay: SPA competition vs 125I-calcitonin, membranes with rat CTR (Assay VIII)
# [4] = target: T3, rat amylin receptor (rat calcitonin …); assay: SPA competition vs 125I-rat amylin, membranes with rat CTR + rat RAMP3 (Assay VI)
Ratio rCT/rAmylin binding (rat calcitonin receptor [1]),Ratio hCT/hAmylin binding [2],IC50 (rat calcitonin receptor [3]) [nM],IC50 [4] [nM],Binder
84.3,44.9,17.1,0.203,"{C20 diacid-γGlu}-GRCNTATCATQRLANFLRHSSPNFGAIPSSTNVGSHTY-NH2 (disulfide 3-8; SMILES CC[C@H](C)[C@H](NC(=O)[C@H](C)NC(=O)CNC(=O)[C@H](Cc1ccccc1)NC(=O)[C@H](CC(N)=O)NC(=O)[C@@H]1CCCN1C(=O)[C@H](CO)NC(=O)[C@H](CO)NC(=O)[C@H](Cc1c[nH]cn1)NC(=O)[C@H](CCCNC(=N)N)NC(=O)[C@H](CC(C)C)NC(=O)[C@H](Cc1ccccc1)NC(=O)[C@H](CC(N)=O)NC(=O)[C@H](C)NC(=O)[C@H](CC(C)C)NC(=O)[C@H](CCCNC(=N)N)NC(=O)[C@H](CCC(N)=O)NC(=O)[C@@H](NC(=O)[C@H](C)NC(=O)[C@@H]1CSSC[C@H](NC(=O)[C@H](CCCNC(=N)N)NC(=O)CNC(=O)CC[C@H](NC(=O)CCCCCCCCCCCCCCCCCCC(=O)O)C(=O)O)C(=O)N[C@@H](CC(N)=O)C(=O)N[C@@H]([C@@H](C)O)C(=O)N[C@@H](C)C(=O)N[C@@H]([C@@H](C)O)C(=O)N1)[C@@H](C)O)C(=O)N1CCC[C@H]1C(=O)N[C@@H](CO)C(=O)N[C@@H](CO)C(=O)N[C@H](C(=O)N[C@@H](CC(N)=O)C(=O)N[C@H](C(=O)NCC(=O)N[C@@H](CO)C(=O)N[C@@H](Cc1c[nH]cn1)C(=O)N[C@H](C(=O)N[C@@H](Cc1ccc(O)cc1)C(N)=O)[C@@H](C)O)C(C)C)[C@@H](C)O, Acylated analogue of human amylin, extended by one residue at the N-terminus; also called compound 47)"
142,48.9,46.8,0.33,"{C20 diacid-γGlu}-GRCNTATCATQRLANFLRHSSPNFGAIPSSTNVGSNTY-NH2 (disulfide 3-8; SMILES CC[C@H](C)[C@H](NC(=O)[C@H](C)NC(=O)CNC(=O)[C@H](Cc1ccccc1)NC(=O)[C@H](CC(N)=O)NC(=O)[C@@H]1CCCN1C(=O)[C@H](CO)NC(=O)[C@H](CO)NC(=O)[C@H](Cc1c[nH]cn1)NC(=O)[C@H](CCCNC(=N)N)NC(=O)[C@H](CC(C)C)NC(=O)[C@H](Cc1ccccc1)NC(=O)[C@H](CC(N)=O)NC(=O)[C@H](C)NC(=O)[C@H](CC(C)C)NC(=O)[C@H](CCCNC(=N)N)NC(=O)[C@H](CCC(N)=O)NC(=O)[C@@H](NC(=O)[C@H](C)NC(=O)[C@@H]1CSSC[C@H](NC(=O)[C@H](CCCNC(=N)N)NC(=O)CNC(=O)CC[C@H](NC(=O)CCCCCCCCCCCCCCCCCCC(=O)O)C(=O)O)C(=O)N[C@@H](CC(N)=O)C(=O)N[C@@H]([C@@H](C)O)C(=O)N[C@@H](C)C(=O)N[C@@H]([C@@H](C)O)C(=O)N1)[C@@H](C)O)C(=O)N1CCC[C@H]1C(=O)N[C@@H](CO)C(=O)N[C@@H](CO)C(=O)N[C@H](C(=O)N[C@@H](CC(N)=O)C(=O)N[C@H](C(=O)NCC(=O)N[C@@H](CO)C(=O)N[C@@H](CC(N)=O)C(=O)N[C@H](C(=O)N[C@@H](Cc1ccc(O)cc1)C(N)=O)[C@@H](C)O)C(C)C)[C@@H](C)O, Acylated analogue of human amylin, extended by one residue at the N-terminus; also called compound 46) [N^-1-[(4S)-4-carboxy-4-(19-carboxynonadecanoylamino)butanoyl]-Gly[Arg1,Arg17,Pro21,Pro27]-h-amylin]"
69.1,34.7,7.6,0.11,"K([AEEA-C20 diacid])CNTATCATQRLANFLRHSSPNFGAIPSSTNVGSNTY-NH2 (disulfide 2-7; N-terminus assumed; SMILES CC[C@H](C)[C@H](NC(=O)[C@H](C)NC(=O)CNC(=O)[C@H](Cc1ccccc1)NC(=O)[C@H](CC(N)=O)NC(=O)[C@@H]1CCCN1C(=O)[C@H](CO)NC(=O)[C@H](CO)NC(=O)[C@H](Cc1c[nH]cn1)NC(=O)[C@H](CCCNC(=N)N)NC(=O)[C@H](CC(C)C)NC(=O)[C@H](Cc1ccccc1)NC(=O)[C@H](CC(N)=O)NC(=O)[C@H](C)NC(=O)[C@H](CC(C)C)NC(=O)[C@H](CCCNC(=N)N)NC(=O)[C@H](CCC(N)=O)NC(=O)[C@@H](NC(=O)[C@H](C)NC(=O)[C@@H]1CSSC[C@H](NC(=O)[C@@H](N)CCCCNC(=O)COCCOCCNC(=O)CCCCCCCCCCCCCCCCCCC(=O)O)C(=O)N[C@@H](CC(N)=O)C(=O)N[C@@H]([C@@H](C)O)C(=O)N[C@@H](C)C(=O)N[C@@H]([C@@H](C)O)C(=O)N1)[C@@H](C)O)C(=O)N1CCC[C@H]1C(=O)N[C@@H](CO)C(=O)N[C@@H](CO)C(=O)N[C@H](C(=O)N[C@@H](CC(N)=O)C(=O)N[C@H](C(=O)NCC(=O)N[C@@H](CO)C(=O)N[C@@H](CC(N)=O)C(=O)N[C@H](C(=O)N[C@@H](Cc1ccc(O)cc1)C(N)=O)[C@@H](C)O)C(C)C)[C@@H](C)O, Acylated analogue of human amylin; also called compound 43) [N^ε1-[2-[2-[2-(19-carboxynonadecanoylamino)ethoxy]ethoxy]acetyl]-[Arg17,Pro21,Pro27]-h-amylin]"
116,90,350,3.01,"KCNTATCATQRLANFLRHSSPNFGAIPSSTNVGSNTY (C20 diacid-gGlu-2xOEG on alpha-amino of the N-terminal residue; Cys2-Cys7 disulfide; C-terminal amide (as human amylin), Acylated analogue of human amylin; also called compound 24)"
21.7,20,51.5,2.37,"{C20 diacid-γGlu}-KCNTATCATQRLAEFLRHSSPNFGPILPPTNVGSNTY-NH2 (disulfide 2-7; SMILES CC[C@H](C)[C@H](NC(=O)[C@@H]1CCCN1C(=O)CNC(=O)[C@H](Cc1ccccc1)NC(=O)[C@H](CC(N)=O)NC(=O)[C@@H]1CCCN1C(=O)[C@H](CO)NC(=O)[C@H](CO)NC(=O)[C@H](Cc1c[nH]cn1)NC(=O)[C@H](CCCNC(=N)N)NC(=O)[C@H](CC(C)C)NC(=O)[C@H](Cc1ccccc1)NC(=O)[C@H](CCC(=O)O)NC(=O)[C@H](C)NC(=O)[C@H](CC(C)C)NC(=O)[C@H](CCCNC(=N)N)NC(=O)[C@H](CCC(N)=O)NC(=O)[C@@H](NC(=O)[C@H](C)NC(=O)[C@@H]1CSSC[C@H](NC(=O)[C@H](CCCCN)NC(=O)CC[C@H](NC(=O)CCCCCCCCCCCCCCCCCCC(=O)O)C(=O)O)C(=O)N[C@@H](CC(N)=O)C(=O)N[C@@H]([C@@H](C)O)C(=O)N[C@@H](C)C(=O)N[C@@H]([C@@H](C)O)C(=O)N1)[C@@H](C)O)C(=O)N[C@@H](CC(C)C)C(=O)N1CCC[C@H]1C(=O)N1CCC[C@H]1C(=O)N[C@H](C(=O)N[C@@H](CC(N)=O)C(=O)N[C@H](C(=O)NCC(=O)N[C@@H](CO)C(=O)N[C@@H](CC(N)=O)C(=O)N[C@H](C(=O)N[C@@H](Cc1ccc(O)cc1)C(N)=O)[C@@H](C)O)C(C)C)[C@@H](C)O, Acylated analogue of human amylin; also called compound 6)"
54,49.9,74.1,1.37,"K([AEEA-γGlu-C20 diacid])CNTATCATQRLANFLRHSSPNFGAIPSSTNVGSNTY-NH2 (disulfide 2-7; N-terminus assumed; SMILES CC[C@H](C)[C@H](NC(=O)[C@H](C)NC(=O)CNC(=O)[C@H](Cc1ccccc1)NC(=O)[C@H](CC(N)=O)NC(=O)[C@@H]1CCCN1C(=O)[C@H](CO)NC(=O)[C@H](CO)NC(=O)[C@H](Cc1c[nH]cn1)NC(=O)[C@H](CCCNC(=N)N)NC(=O)[C@H](CC(C)C)NC(=O)[C@H](Cc1ccccc1)NC(=O)[C@H](CC(N)=O)NC(=O)[C@H](C)NC(=O)[C@H](CC(C)C)NC(=O)[C@H](CCCNC(=N)N)NC(=O)[C@H](CCC(N)=O)NC(=O)[C@@H](NC(=O)[C@H](C)NC(=O)[C@@H]1CSSC[C@H](NC(=O)[C@@H](N)CCCCNC(=O)COCCOCCNC(=O)CC[C@H](NC(=O)CCCCCCCCCCCCCCCCCCC(=O)O)C(=O)O)C(=O)N[C@@H](CC(N)=O)C(=O)N[C@@H]([C@@H](C)O)C(=O)N[C@@H](C)C(=O)N[C@@H]([C@@H](C)O)C(=O)N1)[C@@H](C)O)C(=O)N1CCC[C@H]1C(=O)N[C@@H](CO)C(=O)N[C@@H](CO)C(=O)N[C@H](C(=O)N[C@@H](CC(N)=O)C(=O)N[C@H](C(=O)NCC(=O)N[C@@H](CO)C(=O)N[C@@H](CC(N)=O)C(=O)N[C@H](C(=O)N[C@@H](Cc1ccc(O)cc1)C(N)=O)[C@@H](C)O)C(C)C)[C@@H](C)O, Acylated analogue of human amylin; also called compound 41)"
